In the supplement of paper PMC9112550, “Optimization of the antimicrobial peptide Bac7 by deep mutational scanning” (BMC Biology, 2022):

Tested on: Escherichia coli TOP10
Assay: shrunken log2 fold change of peptide-encoding DNA abundance (4.5 h post-induction vs induction); higher = less antimicrobial activity (less host growth inhibition)
Conditions: time post-induction: 4.5 h; library: site-saturation at positions 5, 18, 19, 20
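Further: peptides expressed intracellularly from a pBAD plasmid library in pooled LB shake-flask culture, induced with 0.3% L-arabinose, DNA abundance read by NGS, three biological replicates, DESeq2 with apeglm shrinkage.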

RRIRQRPPRLPRPRPRPAGEPRP
shrunken log2 fold change: 0.156

RRIRYRPPRLPRPRPRPYYKPRP
shrunken log2 fold change: -0.534

RRIRTRPPRLPRPRPRPSVQPRP
shrunken log2 fold change: -0.0749

RRIRIRPPRLPRPRPRPKWVPRP
shrunken log2 fold change: -0.098

RRIRWRPPRLPRPRPRPQWWPRP
shrunken log2 fold change: 0.00856

RRIRQRPPRLPRPRPRPVCMPRP
shrunken log2 fold change: -0.0787

RRIRCRPPRLPRPRPRPCPKPRP
shrunken log2 fold change: -0.0654

RRIRRRPPRLPRPRPRPYKRPRP
shrunken log2 fold change: -0.238

RRIRRRPPRLPRPRPRPGQSPRP
shrunken log2 fold change: 0.155

RRIRTRPPRLPRPRPRPCRKPRP
shrunken log2 fold change: -0.0644

RRIRGRPPRLPRPRPRPWTDPRP
shrunken log2 fold change: -0.211

RRIRERPPRLPRPRPRPEWRPRP
shrunken log2 fold change: 0.334

RRIRYRPPRLPRPRPRPGMSPRP
shrunken log2 fold change: -0.137

RRIRSRPPRLPRPRPRPDKPPRP
shrunken log2 fold change: -0.266

RRIRFRPPRLPRPRPRPFLCPRP
shrunken log2 fold change: -0.313

RRIRLRPPRLPRPRPRPYPNPRP
shrunken log2 fold change: -1.27

RRIRSRPPRLPRPRPRPWLVPRP
shrunken log2 fold change: 0.0191

RRIRWRPPRLPRPRPRPRSSPRP
shrunken log2 fold change: 0.246

RRIRERPPRLPRPRPRPPFSPRP
shrunken log2 fold change: -0.241

RRIRSRPPRLPRPRPRPAYPPRP
shrunken log2 fold change: 0.0454

RRIRLRPPRLPRPRPRPPQAPRP
shrunken log2 fold change: 0.872

RRIRKRPPRLPRPRPRPHTGPRP
shrunken log2 fold change: -0.0786

RRIRIRPPRLPRPRPRPWNSPRP
shrunken log2 fold change: -0.592

RRIRGRPPRLPRPRPRPDFSPRP
shrunken log2 fold change: 0.313

RRIRVRPPRLPRPRPRPHNKPRP
shrunken log2 fold change: -0.63

RRIRTRPPRLPRPRPRPIRLPRP
shrunken log2 fold change: 0.0213

RRIRHRPPRLPRPRPRPEKHPRP
shrunken log2 fold change: 0.0511

RRIRERPPRLPRPRPRPEHVPRP
shrunken log2 fold change: -0.017

RRIRSRPPRLPRPRPRPFWTPRP
shrunken log2 fold change: 0.131

RRIRPRPPRLPRPRPRPFTMPRP
shrunken log2 fold change: 1.43

RRIRPRPPRLPRPRPRPKSFPRP
shrunken log2 fold change: -0.0474

RRIRPRPPRLPRPRPRPYLLPRP
shrunken log2 fold change: -1.57

RRIRARPPRLPRPRPRPRINPRP
shrunken log2 fold change: 0.105

RRIRVRPPRLPRPRPRPVPPPRP
shrunken log2 fold change: 0.27

RRIRFRPPRLPRPRPRPVSEPRP
shrunken log2 fold change: 0.114

RRIRHRPPRLPRPRPRPDTCPRP
shrunken log2 fold change: -0.287

RRIRSRPPRLPRPRPRPHPHPRP
shrunken log2 fold change: -0.168

RRIRARPPRLPRPRPRPPMCPRP
shrunken log2 fold change: 0.00915

RRIRYRPPRLPRPRPRPWWLPRP
shrunken log2 fold change: -0.0627

RRIRCRPPRLPRPRPRPQRTPRP
shrunken log2 fold change: 0.288

RRIRTRPPRLPRPRPRPMQIPRP
shrunken log2 fold change: 0.08

RRIRFRPPRLPRPRPRPWSSPRP
shrunken log2 fold change: 0.0276

RRIRGRPPRLPRPRPRPFFHPRP
shrunken log2 fold change: -0.0568

RRIRERPPRLPRPRPRPLTNPRP
shrunken log2 fold change: -0.242

RRIRRRPPRLPRPRPRPHFKPRP
shrunken log2 fold change: -0.0168

RRIRCRPPRLPRPRPRPLFYPRP
shrunken log2 fold change: -0.764

RRIRWRPPRLPRPRPRPEFRPRP
shrunken log2 fold change: 0.422

RRIRRRPPRLPRPRPRPHCRPRP
shrunken log2 fold change: 0.103

RRIRSRPPRLPRPRPRPPYMPRP
shrunken log2 fold change: -0.316

RRIRPRPPRLPRPRPRPFPRPRP
shrunken log2 fold change: 0.0474

RRIRHRPPRLPRPRPRPPVTPRP
shrunken log2 fold change: -0.0642

RRIRRRPPRLPRPRPRPSHDPRP
shrunken log2 fold change: -0.00919

RRIRRRPPRLPRPRPRPKWWPRP
shrunken log2 fold change: 0.579

RRIRQRPPRLPRPRPRPLSVPRP
shrunken log2 fold change: -0.539

RRIRTRPPRLPRPRPRPWDSPRP
shrunken log2 fold change: -0.00804

RRIRSRPPRLPRPRPRPSPVPRP
shrunken log2 fold change: -0.0362

RRIRSRPPRLPRPRPRPARSPRP
shrunken log2 fold change: 0.158

RRIRTRPPRLPRPRPRPKVEPRP
shrunken log2 fold change: 0.12

RRIRDRPPRLPRPRPRPHYSPRP
shrunken log2 fold change: -0.16

RRIRIRPPRLPRPRPRPNWPPRP
shrunken log2 fold change: -0.146

RRIRDRPPRLPRPRPRPCFPPRP
shrunken log2 fold change: -0.0323

RRIRVRPPRLPRPRPRPLWPPRP
shrunken log2 fold change: 0.176

RRIRRRPPRLPRPRPRPVLPPRP
shrunken log2 fold change: 0.584

RRIRMRPPRLPRPRPRPEKSPRP
shrunken log2 fold change: 2

RRIRDRPPRLPRPRPRPTKRPRP
shrunken log2 fold change: 0.123

RRIRDRPPRLPRPRPRPDTYPRP
shrunken log2 fold change: -0.0814

RRIRPRPPRLPRPRPRPIVYPRP
shrunken log2 fold change: 0.175

RRIRLRPPRLPRPRPRPNWYPRP
shrunken log2 fold change: -0.771

RRIRIRPPRLPRPRPRPTWSPRP
shrunken log2 fold change: 0.047

RRIRCRPPRLPRPRPRPQTSPRP
shrunken log2 fold change: -0.209

RRIRMRPPRLPRPRPRPIASPRP
shrunken log2 fold change: 0.0465

RRIRTRPPRLPRPRPRPMYRPRP
shrunken log2 fold change: -0.0591

RRIRARPPRLPRPRPRPGMNPRP
shrunken log2 fold change: -0.0966

RRIRQRPPRLPRPRPRPSHQPRP
shrunken log2 fold change: -0.0977

RRIRTRPPRLPRPRPRPHDHPRP
shrunken log2 fold change: -0.257

RRIRQRPPRLPRPRPRPYTCPRP
shrunken log2 fold change: 0.0526

RRIRRRPPRLPRPRPRPFTQPRP
shrunken log2 fold change: -0.223

RRIRFRPPRLPRPRPRPQWGPRP
shrunken log2 fold change: -0.139

RRIRCRPPRLPRPRPRPQNVPRP
shrunken log2 fold change: -0.749

RRIRTRPPRLPRPRPRPLTDPRP
shrunken log2 fold change: -0.198

RRIRMRPPRLPRPRPRPYFIPRP
shrunken log2 fold change: -0.413

RRIRVRPPRLPRPRPRPAEHPRP
shrunken log2 fold change: -0.086

RRIRARPPRLPRPRPRPAARPRP
shrunken log2 fold change: 0.828

RRIRIRPPRLPRPRPRPFPEPRP
shrunken log2 fold change: -0.45

RRIRSRPPRLPRPRPRPIKYPRP
shrunken log2 fold change: -0.654

RRIRKRPPRLPRPRPRPRYQPRP
shrunken log2 fold change: -0.0143

RRIRKRPPRLPRPRPRPNGMPRP
shrunken log2 fold change: 0.0655

RRIRIRPPRLPRPRPRPIQRPRP
shrunken log2 fold change: -0.265

RRIRNRPPRLPRPRPRPANVPRP
shrunken log2 fold change: 0.0585

RRIRMRPPRLPRPRPRPAYKPRP
shrunken log2 fold change: 0.0601

RRIRIRPPRLPRPRPRPQYMPRP
shrunken log2 fold change: -1.02

RRIRNRPPRLPRPRPRPKQVPRP
shrunken log2 fold change: -0.173

RRIRPRPPRLPRPRPRPRWQPRP
shrunken log2 fold change: 0.754

RRIRERPPRLPRPRPRPVWCPRP
shrunken log2 fold change: -0.156

RRIRTRPPRLPRPRPRPMTNPRP
shrunken log2 fold change: -0.138

RRIRRRPPRLPRPRPRPSVGPRP
shrunken log2 fold change: 0.171

RRIRVRPPRLPRPRPRPMERPRP
shrunken log2 fold change: 0.0131

RRIRRRPPRLPRPRPRPTHVPRP
shrunken log2 fold change: 0.427

RRIRQRPPRLPRPRPRPKEWPRP
shrunken log2 fold change: -0.00145

RRIRNRPPRLPRPRPRPAIDPRP
shrunken log2 fold change: -0.0478

RRIRLRPPRLPRPRPRPMEMPRP
shrunken log2 fold change: -0.0251

RRIRDRPPRLPRPRPRPQSDPRP
shrunken log2 fold change: -0.0119

RRIRCRPPRLPRPRPRPTEYPRP
shrunken log2 fold change: -0.564

RRIRQRPPRLPRPRPRPITCPRP
shrunken log2 fold change: -0.0276

RRIRNRPPRLPRPRPRPKHVPRP
shrunken log2 fold change: -0.0669

RRIRVRPPRLPRPRPRPHCAPRP
shrunken log2 fold change: -0.179

RRIRLRPPRLPRPRPRPTILPRP
shrunken log2 fold change: 0.0347

RRIRPRPPRLPRPRPRPFYNPRP
shrunken log2 fold change: -0.7

RRIRGRPPRLPRPRPRPITGPRP
shrunken log2 fold change: 0.064

RRIRKRPPRLPRPRPRPRYCPRP
shrunken log2 fold change: -0.142

RRIRNRPPRLPRPRPRPLYNPRP
shrunken log2 fold change: -0.0372

RRIRKRPPRLPRPRPRPSTYPRP
shrunken log2 fold change: -0.0529

RRIRSRPPRLPRPRPRPAPHPRP
shrunken log2 fold change: 0.276

RRIRVRPPRLPRPRPRPDVNPRP
shrunken log2 fold change: -0.172

RRIRIRPPRLPRPRPRPMMHPRP
shrunken log2 fold change: -0.59

RRIRVRPPRLPRPRPRPDDGPRP
shrunken log2 fold change: 0.0292

RRIRERPPRLPRPRPRPMPDPRP
shrunken log2 fold change: 0.17

RRIRCRPPRLPRPRPRPVLIPRP
shrunken log2 fold change: -0.414

RRIRPRPPRLPRPRPRPWYVPRP
shrunken log2 fold change: -0.369

RRIRYRPPRLPRPRPRPIPEPRP
shrunken log2 fold change: 0.0704

RRIRKRPPRLPRPRPRPETCPRP
shrunken log2 fold change: 0.0906

RRIRTRPPRLPRPRPRPECFPRP
shrunken log2 fold change: 0.146

RRIRPRPPRLPRPRPRPYARPRP
shrunken log2 fold change: -0.0595

RRIRSRPPRLPRPRPRPPGSPRP
shrunken log2 fold change: 0.134

RRIRDRPPRLPRPRPRPPHGPRP
shrunken log2 fold change: 0.294

RRIRTRPPRLPRPRPRPLHPPRP
shrunken log2 fold change: 0.375

RRIRRRPPRLPRPRPRPWCIPRP
shrunken log2 fold change: -0.366

RRIRSRPPRLPRPRPRPLATPRP
shrunken log2 fold change: 0.627

RRIRQRPPRLPRPRPRPQAPPRP
shrunken log2 fold change: 0.233

RRIRNRPPRLPRPRPRPMTPPRP
shrunken log2 fold change: 0.244

RRIRFRPPRLPRPRPRPKCAPRP
shrunken log2 fold change: -0.0345

RRIRKRPPRLPRPRPRPNWWPRP
shrunken log2 fold change: -0.382

RRIRPRPPRLPRPRPRPRWYPRP
shrunken log2 fold change: -0.0594

RRIRLRPPRLPRPRPRPDHVPRP
shrunken log2 fold change: -0.00963

RRIRFRPPRLPRPRPRPPCAPRP
shrunken log2 fold change: 0.576

RRIRERPPRLPRPRPRPFGFPRP
shrunken log2 fold change: -0.335

RRIRIRPPRLPRPRPRPIRQPRP
shrunken log2 fold change: 0.143

RRIRKRPPRLPRPRPRPYSRPRP
shrunken log2 fold change: -0.0735

RRIRLRPPRLPRPRPRPAWEPRP
shrunken log2 fold change: 0.185

RRIRDRPPRLPRPRPRPLKWPRP
shrunken log2 fold change: 0.0491

RRIRNRPPRLPRPRPRPDRFPRP
shrunken log2 fold change: -0.148

RRIRARPPRLPRPRPRPCACPRP
shrunken log2 fold change: 0.0599

RRIRFRPPRLPRPRPRPFINPRP
shrunken log2 fold change: -0.874

RRIRCRPPRLPRPRPRPRLQPRP
shrunken log2 fold change: 0.425

RRIRCRPPRLPRPRPRPVPNPRP
shrunken log2 fold change: -0.26

RRIRLRPPRLPRPRPRPGIAPRP
shrunken log2 fold change: -0.206

RRIRARPPRLPRPRPRPHMGPRP
shrunken log2 fold change: 0.0766

RRIRWRPPRLPRPRPRPKLRPRP
shrunken log2 fold change: 0.132

RRIRPRPPRLPRPRPRPPVCPRP
shrunken log2 fold change: 0.409

RRIRARPPRLPRPRPRPHWWPRP
shrunken log2 fold change: 0.5
